The text below walks through data of paper PMC7369975, “Scalable High-Performance Production of Recombinant Horseradish Peroxidase from E. coli Inclusion Bodies” (International Journal of Molecular Sciences, 2020).

Format in all cases: biochemical, Armoracia rusticana
The test system of data set [1] is T1, pHRP (commercial plant HRP Type VI-A).
T1 construct: gene PRXC1A; native glycosylated enzyme from horseradish root, commercial preparation, variable isoenzyme mixture, 44 kDa
The experiment in a line: absorbance at […] nm, initial rate, 96-well plate. Particulars: 1 mM H2O2 (saturating), 50 mM phosphate-citrate, pH 5, 30 °C; ABTS 0.1-7 mM.

The test system is the same in data set [2]. Briefly: absorbance at […] nm, initial rate, 96-well plate. The settings on record: 1 mM H2O2 (saturating), 50 mM phosphate-citrate, pH 5; TMB 0.02-0.55 mM.
Substrate in the data set “purified protein”: Cc1cc(-c2cc(C)c(N)c(C)c2)cc(C)c1N
The experiment in a line: purified protein. The settings on record: 1 mM H2O2 (saturating), 50 mM phosphate-citrate, pH 5, TMB 0.02-0.55 mM.

With `CCn1c(=NN=c2sc3cc(S(=O)(=O)O)ccc3n2CC)sc2cc(S(=O)(=O)O)ccc21` [ABTS, 2,2′-azino-bis (3-ethylbenzothiazoline-6-sulphonic acid)], the Km in data set [1] was found to be 700 ± 140 µM.
Turning to `Cc1cc(-c2cc(C)c(N)c(C)c2)cc(C)c1N` [TMB, 3,3′,5,5′-tetramethylbenzidine], in data set [2], the Km is 101 ± 20 µM.

B1: rHRP (refolded recombinant HRP, variant C1A) (Armoracia rusticana) (protein)
chain: QLTPTFYDNSCPNVSNIVRDTIVNELRSDPRIAASILRLHFHDCFVNGCDASILLDNTTSFRTEKDAFGNANSARGFPVIDRMKAAVESACPRTVSCADLLTIAAQQSVTLAGGPSWRVPLGRRDSLQAFLDLANANLPAPFFTLPQLKDSFRNVGLNRSSDLVALSGGHTFGKNQCRFIMDRLYNFSNTGLPDPTLNTTYLQTLRGLCPLNGNLSALVDFDLRTPTIFDNKYYVNLEEQKGLIQSDQELFSSPNATDTIPLVRSFANSTQTFFNAFVEAMDRMGNITPLTGTQGQIRLNCRVVNSNS
In the case of B1, in the data set “purified protein”, the Km was 105 ± 14 µM, the Vmax came to 7150 µmol/min/mg, the kcat was 4170 ± 207 s⁻¹ and the kcat/Km was found to be 3.96e+07 ± 5.66e+06 M⁻¹ s⁻¹.
